From article PMC11957051

Assays:
[1] = biological target: P. aeruginosa RloA2, PA0462 (18–169) (P. aeruginosa); experiment: SEC-MALS
[2] = biological target: P. fluorescens RloA, Pfl01_1762 (20–178) (P. fluorescens); experiment: SEC-MALS

P. aeruginosa RloA2, PA0462 (18–169) (enzyme)
stoichiometry N [1]: 2

P. fluorescens RloA, Pfl01_1762 (20–178) (enzyme)
stoichiometry N [2]: 2
